B1: Gamma-crystallin C, residues 91 to 170; numbered along this chain, P07315 (parent)
chain: RLYEREDHKGLMMELSEDCPSIQDRFHLSEIRSLHVLEGCWVLYELPNYRGRQYLLRPQEYRRCQDWGAMDAKAGSLRRV

± gives the uncertainty stated by the source.

The variants in this data set derive from B1. The experiment in a line: abundance fitness (aPCA) (normalised: wild type 0, dead -1); higher = more abundant; growth selection in yeast, the domain comes from the species named. The following applies: Homo sapiens.
Turning to E30V, the abundance fitness is -0.275 ± 0.037.
Turning to E30T, the abundance fitness was -0.186 ± 0.055.
With E30N the figure was -0.116 ± 0.13; with E30F, -0.234 ± 0.099; with E30L, -0.368 ± 0.043.
As for E30D, the abundance fitness is -0.424 ± 0.11.
Take E30P: the abundance fitness was -1.17 ± 0.34.
In the case of E30I, the abundance fitness is -0.458 ± 0.1.
Regarding E30C, the abundance fitness is -0.117 ± 0.054.
Then E30Y, with -0.145 ± 0.1; and E30K, with -0.13 ± 0.065; and E30A, with -0.133 ± 0.049.
With E30S the figure was -0.222 ± 0.048; with E30R, -0.184 ± 0.037.
Regarding E30H, the abundance fitness was found to be 0.019 ± 0.098.
With S16N, the abundance fitness was -0.025 ± 0.15.
As for S16M, the abundance fitness was -0.365 ± 0.32.
In the case of S16K, the abundance fitness was -0.135 ± 0.13.
With S16L the figure was -0.276 ± 0.063; with S16I, -0.102 ± 0.14.
Take S16F: the abundance fitness was -0.123 ± 0.084.
With S16G the figure was -0.082 ± 0.066; with S16A, -0.043 ± 0.075.
Then S16P, with -0.859 ± 0.23; and S16R, with -0.082 ± 0.054.
With S16E the figure was 0.118 ± 0.089.
Take S16T: the abundance fitness was -0.129 ± 0.1.
Then S16Y, with -0.094 ± 0.14; and S16Q, with -0.132 ± 0.11.
As to S16D, the abundance fitness was -0.029 ± 0.088.
Then S16C, with -0.096 ± 0.07; and D18Y, with -0.748 ± 0.36.
For the variant D18W, the abundance fitness was -0.997 ± 0.23.
Then D18R, with -0.938 ± 0.15.
With D18G the figure was -0.936 ± 0.097; with D18L, -0.956 ± 0.2; with D18P, -0.66 ± 0.29.
Turning to D18I, the abundance fitness was -0.758 ± 0.23.
With D18C the figure was -0.676 ± 0.25; with D18M, -0.496 ± 0.16.
Then D18S, with -0.142 ± 0.055; and D18E, with -0.675 ± 0.11; and D18V, with -1.01 ± 0.17.
For the variant D18T, the abundance fitness is -0.805 ± 0.17.
With D18K the figure was -0.934 ± 0.29; with D18F, -0.955 ± 0.24.
D18Q: the abundance fitness was -0.935 ± 0.35.
D18A: the abundance fitness is -0.462 ± 0.088.
With P20M the figure was -0.684 ± 0.39; with P20V, -0.345 ± 0.06.
Then P20N, with -0.152 ± 0.22.
Turning to P20A, the abundance fitness was -0.025 ± 0.065.
Then P20L, with -0.613 ± 0.091.
Then P20D, with -0.24 ± 0.19; and P20C, with -0.253 ± 0.072; and P20W, with -0.503 ± 0.08.
On to P20I, for which the abundance fitness was -0.506 ± 0.23.
Then P20E, with -0.11 ± 0.12; and P20H, with 0.061 ± 0.44; and P20R, with -0.44 ± 0.069.
With P20G the figure was -0.394 ± 0.054; with P20Q, -0.442 ± 0.19; with P20Y, -0.996 ± 0.4.
Then P20T, with -0.43 ± 0.17.
In the case of P20S, the abundance fitness was -0.292 ± 0.07.
As for V36C, the abundance fitness was -0.836 ± 0.17.
Then V36I, with -0.013 ± 0.089; and V36E, with -0.88 ± 0.36; and V36A, with -0.783 ± 0.17.
For V36G, the abundance fitness was -0.76 ± 0.095.
For S29H, the abundance fitness is -0.064 ± 0.23.
As for S29C, the abundance fitness was -0.237 ± 0.082.
With S29P the figure was -0.199 ± 0.084; with S29V, -0.328 ± 0.094; with S29L, -0.165 ± 0.057.
Then S29N, with -0.003 ± 0.13.
S29A: the abundance fitness was -0.161 ± 0.076.
S29D: the abundance fitness is -0.073 ± 0.15.
Then S29Q, with -0.086 ± 0.085.
With S29R the figure was -0.043 ± 0.04.
Turning to S29W, the abundance fitness is -0.113 ± 0.056.
For the variant S29G, the abundance fitness is -0.118 ± 0.069.
Take S29M: the abundance fitness was -0.408 ± 0.16.
Then S29Y, with -0.132 ± 0.085.
S29F: the abundance fitness was -0.318 ± 0.11.
Then S29T, with -0.012 ± 0.089; and S29E, with -0.112 ± 0.097.
Then S29K, with -0.013 ± 0.13; and S29I, with -0.408 ± 0.19; and D24C, with -0.274 ± 0.1.
Then D24H, with -0.087 ± 0.24; and D24K, with -0.256 ± 0.17.
For the variant D24M, the abundance fitness was -0.194 ± 0.11.
Take D24W: the abundance fitness is -0.516 ± 0.088.
With D24G the figure was -0.167 ± 0.043.
With D24S the figure was -0.067 ± 0.052; with D24L, -0.31 ± 0.067.
With D24N the figure was -0.183 ± 0.13.
In the case of D24Y, the abundance fitness was -0.35 ± 0.098.
For the variant D24E, the abundance fitness came to 0.045 ± 0.073.
For D24P, the abundance fitness is -0.951 ± 0.5.
With D24T the figure was -0.202 ± 0.18.
D24V: the abundance fitness was -0.396 ± 0.067.
With D24Q, the abundance fitness was -0.213 ± 0.12.
Then D24A, with -0.008 ± 0.063; and S33I, with -0.492 ± 0.32.
With S33F the figure was -0.99 ± 0.1; with S33D, -1.07 ± 0.4; with S33G, -0.872 ± 0.1.
Then S33R, with -0.9 ± 0.12; and S33L, with -0.865 ± 0.15; and S33H, with -0.933 ± 0.5.
Regarding S33W, the abundance fitness is -0.98 ± 0.25.
Then S33Y, with -0.424 ± 0.24; and S33V, with -1.01 ± 0.26.
Consider S33K, for which the abundance fitness was -0.957 ± 0.5.
Then S33T, with -1.04 ± 0.26; and S33Q, with -1.03 ± 0.31; and S33M, with -0.673 ± 0.32.
With E17V the figure was -0.253 ± 0.064; with E17G, -0.132 ± 0.051; with E17Q, -0.089 ± 0.073.
With E17F the figure was -0.516 ± 0.11.
E17K: the abundance fitness was -0.416 ± 0.1.
With E17R the figure was -0.422 ± 0.062; with E17P, -0.91 ± 0.32.
With E17S the figure was -0.155 ± 0.057.
With E17T the figure was -0.231 ± 0.078; with E17I, -0.533 ± 0.22.
E17L: the abundance fitness was -0.544 ± 0.09.
With E17C the figure was -0.168 ± 0.091; with E17A, -0.18 ± 0.074.
For the variant E17D, the abundance fitness was -0.035 ± 0.09.
With E17H the figure was -0.564 ± 0.17; with E17N, -0.477 ± 0.27.
With E17Y the figure was -0.526 ± 0.19.
Then E17W, with -0.187 ± 0.095; and L28Y, with -0.252 ± 0.14.
For the variant L28S, the abundance fitness was -0.251 ± 0.072.
As for L28N, the abundance fitness was -0.697 ± 0.23.
With L28Q the figure was -0.337 ± 0.13; with L28H, -0.448 ± 0.23; with L28G, -0.364 ± 0.061.
With L28E the figure was -0.451 ± 0.089.
Then L28T, with -0.601 ± 0.22.
Consider L28F, for which the abundance fitness is -0.335 ± 0.18.
Then L28M, with -0.038 ± 0.099; and L28V, with -0.035 ± 0.054; and L28W, with 0.134 ± 0.14.
With L28A the figure was -0.129 ± 0.055.
For L28R, the abundance fitness was -0.05 ± 0.06.
With L28P, the abundance fitness was -0.864 ± 0.14.
Then L28K, with -0.022 ± 0.14; and L28I, with 0.093 ± 0.15.
As to I31N, the abundance fitness was -0.912 ± 0.17.
With I31Q the figure was -0.992 ± 0.2.
Take I31S: the abundance fitness is -0.665 ± 0.16.
Take I31G: the abundance fitness is -1.01 ± 0.15.
Then I31A, with -0.611 ± 0.074; and I31R, with -0.776 ± 0.15.
Then I31E, with -0.987 ± 0.4.
Then I31C, with -0.833 ± 0.28; and I31P, with -0.951 ± 0.32; and I31D, with -0.843 ± 0.21.
Take I31K: the abundance fitness was -1.02 ± 0.49.
With I31T the figure was -0.789 ± 0.14.
With I31W, the abundance fitness was -0.848 ± 0.16.

(Values after the Human Domainome abundance scans (Beltran et al. 2025).)
